± gives the standard error. For part of these data: Fewer inactive variants are shown than the library holds.
B1: glmS ribozyme (parent)
chain: AUAAAAGCGCCAGAACUACAGAAAUGUAGUUGACGAGGAGGAGGUUUAUCGAAUUUUCGGCGGAUGCCUCCAAA

Assays:
Settings in all cases: with glucosamine-6-phosphate
glucosamine-6-phosphate [1] = variants of: B1; test: kcat; higher = faster cleavage; RNA array
How it was run: (§1)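 Barcoded ribozyme variants, transcribed in situ by E. coli RNA polymerase on sequenced MiSeq chips, were followed via a hybridised Cy3 probe at 37 °C. Glucosamine-6-phosphate ranged from 40 μM to 10 mM in HEPES/KCl/Mg(OAc)2 buffer. kobs came from decay fits to per-tile medians, and kcat and KM from weighted Michaelis–Menten fits.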

glucosamine-6-phosphate [2] = variants of: B1; test: KM; higher = weaker cofactor use; RNA array
How it was run: as §1

glucosamine-6-phosphate [3] = variants of: B1; test: self-cleavage kobs at 160 uM GlcN6P; higher = faster cleavage; RNA array
How it was run: as §1

glucosamine-6-phosphate [4] = variants of: B1; test: self-cleavage kobs at 640 uM GlcN6P; higher = faster cleavage; RNA array
How it was run: as §1

glucosamine-6-phosphate [5] = variants of: B1; test: self-cleavage kobs at 2500 uM GlcN6P; higher = faster cleavage; RNA array
How it was run: as §1

glucosamine-6-phosphate [6] = variants of: B1; test: self-cleavage kobs at 10000 uM GlcN6P; higher = faster cleavage; RNA array
How it was run: as §1

glucosamine-6-phosphate [7] = variants of: B1; test: self-cleavage kobs at 40 uM GlcN6P; higher = faster cleavage; RNA array
How it was run: as §1

Variant | kcat (glucosamine-6-phosphate [1]) | KM (glucosamine-6-phosphate [2]) | self-cleavage kobs at 160 uM GlcN6P (glucosamine-6-phosphate [3]) | self-cleavage kobs at 640 uM GlcN6P (glucosamine-6-phosphate [4]) | self-cleavage kobs at 2500 uM GlcN6P (glucosamine-6-phosphate [5]) | self-cleavage kobs at 10000 uM GlcN6P (glucosamine-6-phosphate [6]) | self-cleavage kobs at 40 uM GlcN6P (glucosamine-6-phosphate [7])
A15G G41C | 0.000647 ± 4.6e-05 s⁻¹ | 2170 ± 310 µM | 4.44e-05 ± 1.5e-05 s⁻¹ | 0.000149 ± 2.7e-05 s⁻¹ | 0.00032 ± 5.7e-05 s⁻¹ | 0.000544 ± 6.2e-05 s⁻¹ | 
A36C C50U | < 1e-05 s⁻¹ |  |  |  |  |  | < 1e-05 s⁻¹
A39U A64G | 0.031 ± 0.012 s⁻¹ |  | 0.00134 ± 0.00017 s⁻¹ | 0.00498 ± 0.0006 s⁻¹ | 0.0101 ± 0.0015 s⁻¹ | 0.0327 ± 0.0047 s⁻¹ | 0.000447 ± 5.6e-05 s⁻¹
C16U U46G | 0.00589 ± 0.00074 s⁻¹ | 1810 ± 320 µM | 0.000489 ± 8.8e-05 s⁻¹ | 0.00131 ± 0.00016 s⁻¹ | 0.00323 ± 0.0005 s⁻¹ | 0.00531 ± 0.00055 s⁻¹ | 0.00014 ± 1.3e-05 s⁻¹
G13A U55G C71G | 4.93e-05 ± 1.6e-05 s⁻¹ |  |  |  | 7.49e-05 ± 2.8e-05 s⁻¹ | 4.08e-05 ± 1.6e-05 s⁻¹ | < 1e-05 s⁻¹
A6C C34A G37A G38A G63U C68U C70G | 1.43e-05 ± 4.9e-06 s⁻¹ |  |  | < 1e-05 s⁻¹ |  |  | 
U30A C58U | 1.78e-05 ± 3.6e-06 s⁻¹ |  |  |  |  |  | 
G60U G66C | < 1e-05 s⁻¹ |  |  |  |  | < 1e-05 s⁻¹ | 
A36G C68G | 1.27e-05 ± 2.3e-06 s⁻¹ |  |  |  |  |  | 
C16G G32A C68U | 0.000119 ± 1.4e-05 s⁻¹ |  |  | 0.000129 ± 3.9e-05 s⁻¹ | 9.95e-05 ± 3.8e-05 s⁻¹ | 0.000115 ± 1.8e-05 s⁻¹ | 
U31G G37U | < 1e-05 s⁻¹ |  |  |  |  |  | 
U49G C67U | 0.000381 ± 5.6e-05 s⁻¹ | 2520 ± 770 µM |  | 7.24e-05 ± 1.9e-05 s⁻¹ | 0.000257 ± 6.4e-05 s⁻¹ | 0.000292 ± 4.6e-05 s⁻¹ | 
U49G C68U | 0.000145 ± 1.9e-05 s⁻¹ | 862 ± 360 µM | 5.03e-05 ± 2.2e-05 s⁻¹ | 6.17e-05 ± 1.2e-05 s⁻¹ | 9.44e-05 ± 1.6e-05 s⁻¹ | 0.000144 ± 1.8e-05 s⁻¹ | 
C11A C71U | 0.000122 ± 1.1e-05 s⁻¹ | 451 ± 210 µM |  | 7.03e-05 ± 1.1e-05 s⁻¹ | 0.000147 ± 2.3e-05 s⁻¹ | 0.000113 ± 8e-06 s⁻¹ | 
A12U G29A A52U | 0.000494 ± 0.00016 s⁻¹ |  |  | 4.42e-05 ± 1.6e-05 s⁻¹ | 0.00021 ± 6.6e-05 s⁻¹ | 0.000309 ± 7.1e-05 s⁻¹ | 
U49G C61A | 1.48e-05 ± 3.5e-06 s⁻¹ |  |  |  |  |  | 
C16U G44C | 6.71e-05 ± 2.3e-05 s⁻¹ |  |  | 6.27e-05 ± 1.7e-05 s⁻¹ | 2.88e-05 ± 1.4e-05 s⁻¹ | 8.38e-05 ± 1.3e-05 s⁻¹ | 
A15G A39G | 0.024 ± 0.0095 s⁻¹ |  | 0.00251 ± 0.00078 s⁻¹ | 0.0174 ± 0.0035 s⁻¹ | 0.037 ± 0.017 s⁻¹ | 0.0199 ± 0.0048 s⁻¹ | 0.0013 ± 0.00018 s⁻¹
G44A G66U | 2.15e-05 ± 1.4e-06 s⁻¹ | 2150 ± 520 µM |  |  |  |  | 

Variant | kcat (glucosamine-6-phosphate [1]) | KM (glucosamine-6-phosphate [2]) | self-cleavage kobs at 160 uM GlcN6P (glucosamine-6-phosphate [3]) | self-cleavage kobs at 640 uM GlcN6P (glucosamine-6-phosphate [4]) | self-cleavage kobs at 2500 uM GlcN6P (glucosamine-6-phosphate [5]) | self-cleavage kobs at 10000 uM GlcN6P (glucosamine-6-phosphate [6]) | self-cleavage kobs at 40 uM GlcN6P (glucosamine-6-phosphate [7])
U30C G32A | 0.00241 ± 0.00034 s⁻¹ | 3840 ± 740 µM | 0.000106 ± 1.2e-05 s⁻¹ | 0.000321 ± 4.3e-05 s⁻¹ | 0.000932 ± 8.8e-05 s⁻¹ | 0.00181 ± 0.00026 s⁻¹ | 
A12U U45A A53U | 0.125 ± 0.042 s⁻¹ | 1100 ± 390 µM |  |  |  |  | 0.00437 ± 0.0009 s⁻¹
G66A C67A | 0.00809 ± 0.0018 s⁻¹ | 1620 ± 470 µM | 0.000708 ± 0.00012 s⁻¹ | 0.00222 ± 0.0004 s⁻¹ | 0.00373 ± 0.00093 s⁻¹ | 0.00873 ± 0.0016 s⁻¹ | 0.000216 ± 3.4e-05 s⁻¹
G63A C68G | 1.26e-05 ± 3.4e-06 s⁻¹ |  |  |  |  |  | 
G13C A53G | 0.000174 ± 2.8e-05 s⁻¹ | 3550 ± 1100 µM |  | 2.97e-05 ± 9e-06 s⁻¹ | 7.05e-05 ± 7.7e-06 s⁻¹ | 0.00013 ± 1.9e-05 s⁻¹ | 
G60A C61A | < 1e-05 s⁻¹ |  | < 1e-05 s⁻¹ |  |  |  | < 1e-05 s⁻¹
A33U C61G | < 1e-05 s⁻¹ |  |  |  |  | < 1e-05 s⁻¹ | < 1e-05 s⁻¹
U45A C71U | 0.0639 ± 0.022 s⁻¹ | 2060 ± 810 µM | 0.00507 ± 0.00093 s⁻¹ | 0.012 ± 0.0029 s⁻¹ |  | 0.0584 ± 0.019 s⁻¹ | 0.00126 ± 0.00019 s⁻¹
C50G A53G | 4.4e-05 ± 2.2e-05 s⁻¹ |  |  |  | 3.81e-05 ± 1.5e-05 s⁻¹ |  | 
C50A U65G | 2.65e-05 ± 9.7e-06 s⁻¹ |  |  |  |  |  | 
U45G U55G | 0.00804 ± 0.002 s⁻¹ | 2970 ± 1000 µM | 0.000304 ± 4.5e-05 s⁻¹ | 0.00148 ± 0.00024 s⁻¹ | 0.00365 ± 0.00057 s⁻¹ | 0.00624 ± 0.00057 s⁻¹ | 0.000146 ± 1.5e-05 s⁻¹
A33U U46C | 2.23e-05 ± 3.7e-06 s⁻¹ |  |  |  |  |  | 
U47C U65A | 0.00113 ± 0.00024 s⁻¹ | 930 ± 300 µM | 0.000154 ± 2.2e-05 s⁻¹ | 0.000443 ± 9.4e-05 s⁻¹ | 0.00121 ± 0.00023 s⁻¹ | 0.00092 ± 0.00017 s⁻¹ | 6.54e-05 ± 1.7e-05 s⁻¹
A15U A39G | 0.00892 ± 0.0027 s⁻¹ | 1830 ± 730 µM | 0.000706 ± 0.00028 s⁻¹ | 0.0023 ± 0.00069 s⁻¹ |  | 0.00943 ± 0.0017 s⁻¹ | 0.000203 ± 3.1e-05 s⁻¹
A33G C71A | < 1e-05 s⁻¹ |  | < 1e-05 s⁻¹ |  |  | < 1e-05 s⁻¹ | < 1e-05 s⁻¹
A48C C67A | 0.000168 ± 1e-05 s⁻¹ | 1800 ± 310 µM |  | 4.27e-05 ± 9.9e-06 s⁻¹ | 0.000104 ± 1.4e-05 s⁻¹ | 0.00014 ± 1.4e-05 s⁻¹ | 
G66A C68U | 0.00532 ± 0.0011 s⁻¹ | 983 ± 280 µM | 0.000531 ± 0.00015 s⁻¹ | 0.00267 ± 0.00085 s⁻¹ | 0.00284 ± 0.00078 s⁻¹ | 0.00549 ± 0.0008 s⁻¹ | 0.000228 ± 2.5e-05 s⁻¹
G29A U31A | 0.00193 ± 0.00042 s⁻¹ | 1110 ± 410 µM | 0.000184 ± 7.5e-05 s⁻¹ | 0.00109 ± 0.00022 s⁻¹ | 0.00129 ± 0.00029 s⁻¹ | 0.00165 ± 0.00037 s⁻¹ | 6.33e-05 ± 1.9e-05 s⁻¹

From the supplement of paper PMC7125110
